Experimental data: PMC3025530 (The Biochemical journal, 2010)

Assays:
[1] = target: T1, ADAM12-Cat (truncated ADAM12 protein consisting of only the pro and catalytic domains) (human, UniProt O43184-2 29-419); test: enzyme inhibition kinetics
T1 sequence (looked up): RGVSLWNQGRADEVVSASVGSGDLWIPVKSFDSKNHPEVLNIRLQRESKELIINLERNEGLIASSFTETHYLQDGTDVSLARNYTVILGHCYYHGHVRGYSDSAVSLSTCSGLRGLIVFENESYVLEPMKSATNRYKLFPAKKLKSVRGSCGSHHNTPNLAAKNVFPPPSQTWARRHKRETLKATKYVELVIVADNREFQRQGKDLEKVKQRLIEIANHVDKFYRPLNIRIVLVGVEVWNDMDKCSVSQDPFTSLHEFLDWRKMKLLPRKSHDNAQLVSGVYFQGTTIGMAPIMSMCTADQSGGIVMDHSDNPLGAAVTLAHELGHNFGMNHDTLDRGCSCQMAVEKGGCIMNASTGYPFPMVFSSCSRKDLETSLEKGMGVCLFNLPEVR

[2] = target: T2, ADAM12-S (shorter secreted form of ADAM12), full-length (human, UniProt O43184-2 29-707); test: enzyme inhibition kinetics
T2 sequence (looked up): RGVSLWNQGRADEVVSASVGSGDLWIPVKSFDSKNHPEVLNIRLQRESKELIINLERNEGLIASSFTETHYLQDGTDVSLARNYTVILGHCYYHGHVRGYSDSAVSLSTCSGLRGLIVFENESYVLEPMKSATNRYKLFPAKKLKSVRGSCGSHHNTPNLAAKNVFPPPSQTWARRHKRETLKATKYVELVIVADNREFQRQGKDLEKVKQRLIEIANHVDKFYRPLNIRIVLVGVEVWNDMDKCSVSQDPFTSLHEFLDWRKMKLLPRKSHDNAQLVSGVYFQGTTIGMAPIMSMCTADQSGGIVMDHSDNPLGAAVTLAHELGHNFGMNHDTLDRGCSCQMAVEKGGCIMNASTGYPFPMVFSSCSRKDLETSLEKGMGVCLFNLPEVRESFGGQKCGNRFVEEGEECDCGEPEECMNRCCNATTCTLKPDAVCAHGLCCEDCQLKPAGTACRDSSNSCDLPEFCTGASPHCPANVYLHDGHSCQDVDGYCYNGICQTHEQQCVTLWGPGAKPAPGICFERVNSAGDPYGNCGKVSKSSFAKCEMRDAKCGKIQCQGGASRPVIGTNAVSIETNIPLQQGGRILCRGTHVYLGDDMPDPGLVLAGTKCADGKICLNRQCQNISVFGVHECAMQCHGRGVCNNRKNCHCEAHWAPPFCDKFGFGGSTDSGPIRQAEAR

B1: N-TIMP-3 (N-terminal domain of TIMP-3), wild-type (domain or fragment, human)
chain: CTCSPSHPQDAFCNSDIVIRAKVVGKKLVKEGPFGTLVYTIKQMKMYRGFTKMPHVQYIHTEASESLCGLKLEVNKYQYLLTGRVYDGKMYTGLCNFVERWDQLTLSQRKGLNYRYHLGCN
A Ki [1] of 0.93 nM and a Ki [2] of 4.4 nM were found for B1 in this work.

B2: TIMP-1 (tissue inhibitor of metalloproteinases 1), full-length (natural protein)
chain: not shown
A Ki [1] of 741 nM and a Ki [2] of 223 nM were found for B2 in this work.
